The data set is described as follows: amyloid nucleation score (Sup35N fusion, yeast selection) (log enrichment); library NNK1; higher = more nucleation; inactive = no reads after selection. Summed up:
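Nucleation score is defined as the DiMSum log enrichment of output over input reads, with centring on the mode score of non-aggregating sequences. A minimum of 100 input reads was required for each sequence. Reads came from Illumina sequencing of plasmid inserts from psi-negative yeast expressing Sup35N fused to peptides of 20 random codons, induced with 100 μM copper sulfate for 24 hours and grown 7 days at 30°C on medium lacking adenine and uracil.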

We go through 141 substances from the supplement of paper PMC12042874.

± gives the uncertainty stated by the source.

With SWGLGSFLY, the amyloid nucleation score turned out to be 0.06 ± 0.36. NYTNCTSTDRI came in with an amyloid nucleation score of 0.907 ± 0.56. The figure for GSKGMGSERQVECFTKI is -0.505 ± 0.37; for QPPKHMTMYVYVDTHEAVLS it is -0.133 ± 0.38; for SNATVGQPRYNVRTGKAGCE it is 0.351 ± 0.48. As for LTVLACPRYSS, the figure is 0.525 ± 0.87.

In the case of VDRVGIQYVLEWCSRRSGQV, the amyloid nucleation score came to 0.04 ± 1.4. As for SFIPKVGCKKEPARRASGNV, the figure is 0.413 ± 1.4. For HYNFKDMNYKPLIVIEMHEW, the amyloid nucleation score is 5.33 ± 0.055. As for VSIFPFLTCLVVNLMLGGPV, the figure is 4.26 ± 0.11; as for ITLRVLFFRGKVLFTSGIQE, 0.71 ± 1.1. As for SRRCLLKNISSPCF, the figure is -1.82 ± 0.87; as for MRLHLGWNYEMHRKNRALSI, -0.312 ± 1.4; as for FLNVARQV, 0.101 ± 1.4. As for SNNDFLTSPAFGLLTG, the figure is 0.066 ± 0.45. For the substance GVRMLGFVRV, the amyloid nucleation score was 0.261 ± 0.2. As for AQQGIYCRCTVCGQ, the figure is 1.41 ± 0.28. As for SRMLAVKFKLVVTNCCVKLI, the figure is -0.598 ± 1.4. As for VFLSIGTERMILLIVWHCLN, the figure is -0.34 ± 0.57.

With SSMWFYLRM, the amyloid nucleation score is -0.595 ± 1.9. The figure for TKGFLSNGFLVWPVCIVILW is 0.387 ± 0.77; for QYMLFMYLGVVLKCH it is 0.644 ± 0.59. Substance WCTATGVSRFTMGIKTCHCL gave an amyloid nucleation score of 0.738 ± 0.38.

In turn, FYVLATFSNC returned an amyloid nucleation score of 0.618 ± 0.4. As for IAAYLVVDILPGSI, the figure is -0.036 ± 0.6.

As for YHVSLLSI, the amyloid nucleation score turned out to be 0.169 ± 0.65. As for FCNWANLYGTWLMLCVGSGR, the figure is 0.712 ± 0.42; as for ECVKTVTLVNYRVLRWSSVC, 0.129 ± 0.35; as for VFFSYINCLRF, 0.218 ± 0.45. With FRSFLLPR, the amyloid nucleation score worked out at 0.644 ± 0.54. Substance AVEVYGVISRKLINVSDRIG came in with an amyloid nucleation score of 0.588 ± 0.69. HSHKGGWEWVSWLRREYWIA displayed an amyloid nucleation score of 0.618 ± 0.47. FTCFATCCVLMNNVYYFMTL yielded an amyloid nucleation score of 5.085 ± 0.05. The figure for GRIYLVWVDSTCRRVCKTLV is 0.082 ± 0.29.

Regarding RRSISWNIRSEDLR, the amyloid nucleation score worked out at 0.85 ± 0.48. As to RRIRFNIRFTTCL, the amyloid nucleation score stood at 0.802 ± 0.74.

In the case of YFVLALWFIGCYECLYLWLC, the amyloid nucleation score is 1.21 ± 0.59. TRTNELF: the amyloid nucleation score was found to be 0.498 ± 0.33. The figure for INFDRNFF is -0.54 ± 0.31; for NFKVQREKGF it is “inactive”. The figure for MHISWPYYRHDIVRRKSCSA is 0.011 ± 0.29; for MRSFAFWNYVFGRGMFPVFW it is -0.272 ± 0.41; for MFSNILHAHLRAWA it is 0.53 ± 0.27. As for LTYSPWGCWIYMCYGERFWR, the figure is 7.883 ± 0.062. Consider VDISIVWDVPHQVLTGGFY, for which the amyloid nucleation score was -0.531 ± 0.29. The figure for SSLVKTS is -0.44 ± 0.47. The figure for LNVTQYVKGSEWKWGSTTSP is 0.176 ± 0.52. As for LNRSGIISITIMTWSFGNAQ, the figure is 2.75 ± 0.13. As for TPSMKWFPKLLVLVSSTRHY, the amyloid nucleation score was -0.51 ± 0.44. As for PYVSHCGIHFFGWFSWSRAS, the figure is 0.583 ± 0.46. As for RLVLILSYYVRWNWGREDN, the entry is “inactive”; as for IVGSSQLSYLGLAFSYGVQV, -0.903 ± 1.7.

For the substance LIWSMEALYFMDLLGG, the amyloid nucleation score entry is “inactive”. The figure for MITWMYASWYNRPVLVYQFW is 0.233 ± 0.28; for SWLVPR it is -0.104 ± 0.25; for NNMSIWGMTVTEYLFITNMN it is 0.643 ± 0.53. As for LVRAIIANCAYFCQFRFSLG, the figure is 0.944 ± 0.69; as for GAGIENPSASVIMKREWEVL, 0.382 ± 0.44.

In turn, RSLFLDCS displayed an amyloid nucleation score of -0.475 ± 0.91. The figure for VGWSMWNMIRMMVVPVAGPG is 0.253 ± 0.35; for ESDPGCPVAVIKGPCT it is 0.225 ± 0.8; for FRSELMFSVLPFLGASSVAC it is 1.44 ± 0.69. As for WHELRMCIVMDFLLMLQKMI, the figure is 1.79 ± 0.44; as for RNLVWDMNAFKHVFCEDIHY, 0.396 ± 0.69. As for MGLSLPSFW, the figure is -0.516 ± 1.7; as for STFNFTRIASADMSGTSTIW, 0.505 ± 0.33. Take CIFLM: the amyloid nucleation score was 0.21 ± 0.48. The figure for TRGTPFEYLATGG is 0.607 ± 0.71.

In turn, LDNLWYL gave an amyloid nucleation score of 0.623 ± 0.88. As for GEQGNPIIESSREFSSVEHN, the figure is 4.33 ± 0.078. As for RVHQGLFDGNKAYQTGIHWN, the figure is 0.041 ± 0.25. The figure for PSHYWNRVLLIWRLSGCVVY is -0.145 ± 0.29; for CVDCALQFLGCRVGALLTRG it is -0.875 ± 1.7; for SMYFQRP it is 0.53 ± 0.26.

For the substance VADAPMR, the amyloid nucleation score was 0.944 ± 0.9.

The substance RSFTCVMDRSDVEVGQCLGS displayed an amyloid nucleation score of -0.6 ± 0.77. The figure for VEVSWAAQST is 0.506 ± 0.91; for KFRRLQARFASMMSSTFT it is 1.82 ± 0.14. As for STFSSVTGYKPCY, the figure is 0.551 ± 1.2. As to SWTVGSMLSLDIWHRVYLTT, the amyloid nucleation score was -0.058 ± 0.44. The substance NGYEMVQVLTSFMAAMGVFW yielded an amyloid nucleation score of 0.256 ± 0.84.

In turn, YCDRDLKNKVLSNV displayed an amyloid nucleation score of -0.132 ± 0.42. As for YPYTSLRQGRDTRNREGLQC, the figure is 0.301 ± 0.61; as for RSIRSIESNYYLRNVTFISR, 1.09 ± 0.31; as for PLCEKSGCSLNFDEERQTLW, 1.43 ± 0.51. As for TVPLEIIL, the figure is 0.382 ± 0.52; as for KNNVDSKHS, 0.021 ± 0.52. As for LSSAGYQFMFLSSFLGWEVN, the figure is -0.492 ± 0.44; as for INIGFMKGV, 0.416 ± 0.61; as for KDHNVGMYLAGENCHLG, 0.915 ± 0.9.

For IFAMV, the amyloid nucleation score result is “inactive”. As for HMTLCRRGFISGQADYFVQ, the figure is 0.275 ± 1.2; as for SGCPDPW, -0.047 ± 1.7; as for WNSSFLHRLWEGSNLSARCC, “inactive”. As to SFESYEH, the amyloid nucleation score is 1.29 ± 0.9. The figure for CRACSHMTKLLIGTFLLLDF is -0.325 ± 0.6; for LKYANLSMRYPWVKKYCKEN it is -0.301 ± 0.51; for TVRNYHFVLV it is 1.46 ± 0.33.

Turning to HILTMDLLPTPLSRQLRNMN, the amyloid nucleation score is -0.763 ± 0.97. HSCYLYTSLLIFDMCRYWFL gave an amyloid nucleation score of 0.719 ± 0.48. As for VSYYCAQALVLRIPEEWATE, the figure is -0.168 ± 1.3. As for RTSVLVSASALPNSLSFRQG, the figure is -0.647 ± 1.1. FIWSLVGAQAQSTNRVHHLS had an amyloid nucleation score of 1.3 ± 0.67. The entry for VPMLDLGKVYNRSACP is “inactive”; for DRHRLPILVFLITNRTQRMV it is -0.098 ± 1.3; for AKEVLYFR it is 0.505 ± 0.24. As for AYLADCFPDVSTNWVRAISA, the figure is -0.337 ± 0.29. As for PFRMQNDIVRDQYSVKLQWF, the figure is 3.29 ± 0.17; as for RVNFSDTYTSSGGFALGMST, 0.43 ± 0.3; as for IVGVYLSLNWRHPSRQGSGC, 0.321 ± 0.19.

The substance IELDYYIINIVWPPAGNYRH came in with an amyloid nucleation score of 6.734 ± 0.062. As for RSLNPVISFLN, the figure is -0.329 ± 0.69; as for NYEQYLGCSNTEERSSSCTL, -0.286 ± 1.2; as for NNCAFYSLRWRKLWLGGMHV, 8.364 ± 0.056.

TVNYTCYYGYIIFGYASSVK displayed an amyloid nucleation score of 3.63 ± 0.076.

Turning to SCNSIGTCTLFKLHSLLS, the amyloid nucleation score stood at 0.701 ± 0.51. As for TCRDYCASVSEEQIWLMVYR, the amyloid nucleation score is 0.297 ± 0.67. In the case of IRISVAVHVIVMNYMYPYLI, the amyloid nucleation score was -0.44 ± 1.2. As for YSDCDGTMCYVDAYMCGYMA, the figure is 3.46 ± 0.077; as for VLRTGVH, 1.25 ± 0.66. The figure for YHSKLFVGGYWLYREDGREY is 0.812 ± 0.24; for VWPAQGS it is -0.325 ± 0.8; for CVCLRGDKGPLSRLRLRSSS it is 0.254 ± 1.

In turn, TYGMYFLFSYVSVCQY returned an amyloid nucleation score of 2.3 ± 0.13.

As to CSLRYVLHYRYVGLETATNT, the amyloid nucleation score is 0.763 ± 0.5. As for IDSYITNKGSRSAKCHPDDS, the figure is -0.701 ± 1. As for CMGLFVTSSL, the figure is 0.38 ± 1.2. As for PMTPTCPLTNASTCPSTDRR, the amyloid nucleation score was -0.644 ± 0.74.

The substance CCVRACFPWNVLCKEMIFTR yielded an amyloid nucleation score of -0.663 ± 1.6. As for ELVLSSSWFRRNSYALCKLR, the figure is 0.716 ± 1. VFTIWSMFFIVRFNLWWKCA returned an amyloid nucleation score of 0.081 ± 0.49.

In the case of PYLGNLNSLQGFYLS, the amyloid nucleation score was found to be 0.176 ± 0.78. As for SYSYDARNCNNTRDGNYNFL, the amyloid nucleation score was -1.99 ± 1.1. As for GVMGYFVC, the figure is -0.405 ± 0.27; as for GLGLCRVE, -0.373 ± 0.38; as for SWFWHPYFCHRRIGSMGDGV, -0.017 ± 0.58. The substance WIVHCVEFALYGLGF came in with an amyloid nucleation score of 1.33 ± 0.79. The figure for MREELRGSETG is -0.685 ± 0.63. The figure for IFLGPVLFVGDTRFCHVLIN is 7.789 ± 0.049; for HVGSATASRVMSGCGSTVSY it is -1.83 ± 1.7. The figure for WNTMWRHLGIYFKY is 0.249 ± 0.38.
